{"source": "the supplement of paper PMC10567573", "parents": {"B1": {"name": "PDS5B (parent)", "chain": "ITYPPGVKEISDKISKEEMVRRLK"}}}
{"variants_of": "B1", "experiment": "protein stability index of a GFP-peptide fusion (GPS, HEK-293T) (PSI 1-6); higher = more stable", "details": "c terminus: a fixed tail appended"}
{"variant": "ITYPPGVKEISDKISKEEMVRRTK", "protein stability index": 4.79}
{"variant": "ITYPPGVKEISDKISKEEMVRRWK", "protein stability index": 3.1}
{"variant": "ITYPPGVKEISDKISKEEMVRRIK", "protein stability index": 4.51}
{"variant": "ITYPPGVKEISDKISKEEMVRRNK", "protein stability index": 4.49}
{"variant": "ITYPPGVKEISDKISKEEMVRRAK", "protein stability index": 4.61}
{"variant": "ITYPPGVKEISDKISKEEMVRRDK", "protein stability index": 5.12}
{"variant": "ITYPPGVKEISDKISKEEMVRRQK", "protein stability index": 4.75}
{"variant": "ITYPPGVKEISDKISKEEMVRRKK", "protein stability index": 4.85}
{"variant": "ITYPPGVKEISDKISKEEMVRRVK", "protein stability index": 4.29}
{"variant": "ILYPPGVKEISDKISKEEMVRRLK", "protein stability index": 4.14}
{"variant": "INYPPGVKEISDKISKEEMVRRLK", "protein stability index": 3.79}
{"variant": "IEYPPGVKEISDKISKEEMVRRLK", "protein stability index": 3.86}
{"variant": "IYYPPGVKEISDKISKEEMVRRLK", "protein stability index": 3.37}
{"variant": "IIYPPGVKEISDKISKEEMVRRLK", "protein stability index": 2.83}
{"variant": "IWYPPGVKEISDKISKEEMVRRLK", "protein stability index": 3.45}
{"variant": "IPYPPGVKEISDKISKEEMVRRLK", "protein stability index": 3.47}
{"variant": "ITYPPGVKEISDKISKEYMVRRLK", "protein stability index": 2.86}
{"variant": "ITYPPGVKEISDKISKECMVRRLK", "protein stability index": 3.86}
{"variant": "ITYPPGVKEISDKISKETMVRRLK", "protein stability index": 4.12}
{"variant": "ITYPPGVKEISDKISKEIMVRRLK", "protein stability index": 2.84}
{"variant": "ITYPPGVKEISDKISKEQMVRRLK", "protein stability index": 4.15}
{"variant": "ITYPPGVKEISDKISKEKMVRRLK", "protein stability index": 3.17}
{"variant": "ITYPPGVKEQSDKISKEEMVRRLK", "protein stability index": 4.36}
{"variant": "ITYPPGVKERSDKISKEEMVRRLK", "protein stability index": 3.74}
{"variant": "ITYPPGVKESSDKISKEEMVRRLK", "protein stability index": 4.53}
{"variant": "ITYPPGVKEVSDKISKEEMVRRLK", "protein stability index": 4.62}
{"variant": "ITYPPGVKEDSDKISKEEMVRRLK", "protein stability index": 4.88}
{"variant": "ITYIPGVKEISDKISKEEMVRRLK", "protein stability index": 1.94}
{"variant": "ITYAPGVKEISDKISKEEMVRRLK", "protein stability index": 3.44}
{"variant": "ITYDPGVKEISDKISKEEMVRRLK", "protein stability index": 3.24}
{"variant": "ITYPPGVKEISDKISKEEMVRRLR", "protein stability index": 4.2}
{"variant": "ITYPPGVKEISDKISKEEMVRRLS", "protein stability index": 3.23}
{"variant": "ITYPPGVKEISDKISKEEMVRRLE", "protein stability index": 4.38}
{"variant": "ITYPPGVKEISDKISKEEMVRRLT", "protein stability index": 4.13}
{"variant": "ITYPPGVKEISDKISKEEMVRRLG", "protein stability index": 3.77}
{"variant": "ITYPPGVKEISDKISKEEMVRRLY", "protein stability index": 2.67}
{"variant": "ITYPPGVKEISDKISKEEMVRRLF", "protein stability index": 2.48}
{"variant": "ITYPPGVKEISDKISKEEMVRRLD", "protein stability index": 4.78}
{"variant": "ITYPPGVKEISDKISKEEMVRRLW", "protein stability index": 2.72}
{"variant": "ITYPPGVKEISDKISKEEMVHRLK", "protein stability index": 3.77}
{"variant": "ITYPPGVKEISDKISKEEMVARLK", "protein stability index": 2.21}
{"variant": "ITYPPGVKEISDKISKEEMVDRLK", "protein stability index": 4.46}
{"variant": "ITYPPGVKEISDKISKEEMVGRLK", "protein stability index": 4.75}
{"variant": "ITYPPGVKEISDKISKEEMVNRLK", "protein stability index": 3.44}
{"variant": "ITYPPGVKEISDKISKEEMVWRLK", "protein stability index": 4.52}
{"variant": "ITYPPGVKEISDKISKEEMVCRLK", "protein stability index": 3.96}
{"variant": "ITYPPGVKEISDKISKEEMVVRLK", "protein stability index": 4.11}
